From paper PMC9828337 come the findings set out here.

What all share (assay): MST
Experiment [1] has as its target CurKC lyase domain (residues 1–217) (Thermomonospora curvata DSM43183).
Experiment [2] addresses AciKC lyase domain (residues 1–219).
In experiment [3] the target is CurKC lyase-kinase didomain (residues 1–489) (Thermomonospora curvata DSM43183).
Experiment [4] has as its target CurKC, class III lanthipeptide synthetase from the biosynthesis of curvopeptin (full-length) (Thermomonospora curvata DSM43183).
The target of experiment [5] is CurKC kinase domain (residues 218–489) (Thermomonospora curvata DSM43183).
Experiment [6] deals with CurKC leader recognition domain (LRD, residues 222–309), GB1 tag removed (Thermomonospora curvata DSM43183).

pKd: −log10 of the molar value.

What is called pKd is −log10 of the Kd, conventionally taken in molar units. The low end stands for a large Kd, the high end for a small Kd. Take “AciKC kinase domain (residues 220–495) (domain or fragment)”: the values for the negative logarithm of the Kd (pKd) in experiment [1] and in experiment [2] were 4.83 and 4.36, respectively.

Consider “CurKC kinase domain (residues 218–489) (domain or fragment)”, for which the pKd in experiment [1] is 3.77; in experiment [2], 3.68.

For the substance CurA leader peptide, the negative logarithm of the Kd (pKd) was 4.08 in experiment [3], 5.26 in experiment [4], 3.10 in experiment [5] and 2.92 in experiment [6].

Regarding “CurKC leader recognition domain (LRD, residues 222–309), GB1 tag removed (domain or fragment)”, the negative-log Kd (pKd) in experiment [1] was 3.86.
